Measurements from patent publication US20230103618A1 (FRED HUTCHINSON CANCER CENTER, published 2023).
No end group written: not given here.

Biological target: T1, TrkB.T1 peptide FVLFHKIPLDG (not fully specified)
T1 construct: also called target peptide
T1 peptide: FVLFHKIPLDG
Experiment: bead-based flow cytometry, peptide on beads
Source text: Murine monoclonal antibody (clone FH1D12) was generated at the Fred Hutchinson Antibody Technology Core Facility. Briefly, male and female 20-week-old C57BL6 mice that were characterized as genetic null for TrkB.T1 (Dorsey, S. G. et al.) In vivo restoration of physiological levels of truncated TrkB.T1 receptor rescues neuronal cell death in a trisomic mouse model. Neuron 51, 21-28 (2006)) were immunized with TrkB.T1 peptide Ac—C(dPEG4)[…]-OH (SEQ ID NO:1) maleimide coupled to KLH carrier protein. Following a 12+ week boosting protocol splenocytes were isolated from high titer mice and electrofused to a subclone of the P3x63-Ag8 myeloma cell line (BTX, Harvard Apparatus). Hybridomas secreting peptide specific antibody were identified and isolated using a ClonePix2 (Molecular Devices, CPII) colony picker. Antibodies from the picked clones were validated for peptide binding by flow cytometry using a cytometric bead array carrying the target peptide. Clone FH1D12 was subcloned (CPII) followed by validation for peptide binding by bead-based flow cytometry. Affinity purified IgG2b lambda from the hybridoma was further characterized by Western blot analysis and IHC tissue staining. Antibody development was performed in Holland Lab and with the Antibody Technology Resource (Fred Hutchinson Cancer Research Center).

binding result: binds
B1: Murine monoclonal antibody (clone FH1D12) to TrkB.T1 (antibody, V domains shown)
VH: VQLQQSGPELARPWASVKISCQAFYTFSRGIHFDIRNTMYWIQWVKQRPGQGLEWIGAIYPGNGDPTYSQNFKDKATLTADKSSNTAYMQLSSLTSEDSAVYYCARYDYGGGFTYWGQGTLVTVSA
VL: QTVVTQESALTTSPGETVTLTCRSSTGAVTTSNYANWVQEKPDHLFTGLIGGINNRAPGVPARFSGSLIGDKAVLTITGAQTEDEAIYFCALWYSNHWVFGGGTKLTVL
notes: also called SPEH1_D12; antibody clone D12
